Data from patent publication US20150337308, “MATRIX METALLOPROTEINASE 9 (MMP-9) APTAMER AND USES THEREOF” (CHU DE BORDEAUX, published 2015).

Tests used:
hMMP-7 [1] = target: T1, hMMP-7 (Homo sapiens, UniProt P09237 P09237:95-267); experiment: filter; no retention; conditions: label: 32P 5' end; imperfect hairpin
T1 sequence: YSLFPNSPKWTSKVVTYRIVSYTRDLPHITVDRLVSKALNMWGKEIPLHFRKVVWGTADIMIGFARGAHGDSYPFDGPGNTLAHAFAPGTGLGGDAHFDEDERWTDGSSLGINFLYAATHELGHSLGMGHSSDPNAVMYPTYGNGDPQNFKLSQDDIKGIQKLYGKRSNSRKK

pro-hMMP-7 = target: T2, pro-hMMP-7 (Homo sapiens, UniProt P09237 P09237:18-267); experiment: filter; no retention; conditions: label: 32P 5' end; imperfect hairpin
T2 sequence: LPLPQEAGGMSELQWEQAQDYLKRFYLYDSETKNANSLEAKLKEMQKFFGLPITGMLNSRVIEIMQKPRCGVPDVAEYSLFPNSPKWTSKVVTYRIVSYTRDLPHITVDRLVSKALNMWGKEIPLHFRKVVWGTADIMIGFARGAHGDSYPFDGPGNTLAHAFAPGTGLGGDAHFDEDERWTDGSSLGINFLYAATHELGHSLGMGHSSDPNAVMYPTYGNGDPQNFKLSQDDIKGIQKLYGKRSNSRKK

hMMP-9 (gelatinase B) [2] = target: T3, hMMP-9 (gelatinase B) (Homo sapiens, UniProt P14780 P14780:107-707); experiment: filter; SP buffer (5 mM CaCl2, 1 mM Mg acetate), 23 C; conditions: tags: Calbiochem; label: 32P 5' end; imperfect hairpin
T3 sequence (P14780 107-707, one chain of several): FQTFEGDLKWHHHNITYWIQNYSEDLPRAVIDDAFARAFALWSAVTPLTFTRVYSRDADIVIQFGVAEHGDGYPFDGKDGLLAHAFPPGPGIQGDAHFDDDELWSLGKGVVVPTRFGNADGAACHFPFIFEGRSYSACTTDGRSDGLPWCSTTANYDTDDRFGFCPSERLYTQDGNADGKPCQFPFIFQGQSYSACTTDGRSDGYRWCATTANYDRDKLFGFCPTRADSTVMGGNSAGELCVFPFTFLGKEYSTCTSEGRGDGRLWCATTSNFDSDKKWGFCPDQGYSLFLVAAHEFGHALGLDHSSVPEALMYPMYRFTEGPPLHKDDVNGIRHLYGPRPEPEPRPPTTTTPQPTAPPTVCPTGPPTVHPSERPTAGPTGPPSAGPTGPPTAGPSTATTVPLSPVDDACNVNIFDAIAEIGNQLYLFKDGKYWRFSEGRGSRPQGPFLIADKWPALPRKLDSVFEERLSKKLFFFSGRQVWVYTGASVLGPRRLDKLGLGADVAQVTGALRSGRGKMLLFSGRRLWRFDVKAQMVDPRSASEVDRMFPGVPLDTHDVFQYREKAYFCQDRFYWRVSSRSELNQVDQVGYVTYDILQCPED
Experimental: The dissociation constant (Kd) of the complexes, formed by the aptamers and the hMMP-9 protein, was determined using the filter retention method. 1 nM of ³²P 5′end-labeled aptamer was incubated with increasing concentrations of hMMP-9 (10, 20, 40, 72, 160, 320, 500 nM) for 20 min at 23° C. in 20 μl SP buffer. Complexes were filtered and the radioactivity retained on the filter was quantified using a scintillation counter (LS 6000 IC, Beckman). Kd values were deduced from data point fitting with Kaleidagraph 3.0 (Abelbeck software), according to the equation: B=(Bmax[L]₀)/([…]), where B is the proportion of complex, Bmax is the maximum of complex formed and [L]₀ is the total concentration of unlabeled ligand.

hMMP-9 (gelatinase B) [3] = target: T3, hMMP-9 (gelatinase B); experiment: SPR; no detectable signal; conditions: tags: Calbiochem
Experimental: (§1) Surface Plasmon Resonance (SPR) experiments were performed on a BIAcore™ 3000 apparatus (Biacore AB, Sweden). 2 μg of hMMP-9 protein were injected on a carboxymethylated dextran CM5 sensorchip for immobilisation and aptamers F3B, F3C1 and F3C2 were injected at 200 nM (20 μl/min) in SP buffer. Alternatively CM5 sensorchips were functionalized with streptavidin. 3′ end biotinylated F3B and F3Bomf were immobilised on the functionalized CM5 and hMMP-9 protein at 100 nM in SP buffer was injected. hMMP-9 was injected at different concentrations (from 5 to 160 nM) in PBS buffer. In another series of experiments 3′end biotinylated aptamer F3Bomf was immobilized and hMMP-9, pro-hMMP-9, mouse pro-MMP-9, human MMP-2 or MMP-7 proteins were injected at 50 nM in PBS buffer. SPR experiments were performed at 23° C., at 20 μl/min, and the complexes were dissociated with a pulse of a solution containing 40% formamide/3.6 M urea/30 mM EDTA (42).
Next we optimized the F3B chemistry in the perspective of its use in biological media. […] However the equilibrium constant was evaluated to be in the low nanomolar range. […] In contrast, F3Bomf was able to discriminate between the human and the murine zymogen pro-MMP-9: a weak signal (49 RU) to the mouse pro-MMP-9 was detected, compared to about 1 300 RU with the human proenzyme.

hMMP-2 (gelatinase A) = hMMP-2 (gelatinase A) (Homo sapiens, UniProt P08253 P08253:110-660); experiment: SPR; 50 nM protein, PBS; conditions: label: 3' biotin; hairpin
Sequence of hMMP-2 (gelatinase A) (P08253 110-660, one chain of several): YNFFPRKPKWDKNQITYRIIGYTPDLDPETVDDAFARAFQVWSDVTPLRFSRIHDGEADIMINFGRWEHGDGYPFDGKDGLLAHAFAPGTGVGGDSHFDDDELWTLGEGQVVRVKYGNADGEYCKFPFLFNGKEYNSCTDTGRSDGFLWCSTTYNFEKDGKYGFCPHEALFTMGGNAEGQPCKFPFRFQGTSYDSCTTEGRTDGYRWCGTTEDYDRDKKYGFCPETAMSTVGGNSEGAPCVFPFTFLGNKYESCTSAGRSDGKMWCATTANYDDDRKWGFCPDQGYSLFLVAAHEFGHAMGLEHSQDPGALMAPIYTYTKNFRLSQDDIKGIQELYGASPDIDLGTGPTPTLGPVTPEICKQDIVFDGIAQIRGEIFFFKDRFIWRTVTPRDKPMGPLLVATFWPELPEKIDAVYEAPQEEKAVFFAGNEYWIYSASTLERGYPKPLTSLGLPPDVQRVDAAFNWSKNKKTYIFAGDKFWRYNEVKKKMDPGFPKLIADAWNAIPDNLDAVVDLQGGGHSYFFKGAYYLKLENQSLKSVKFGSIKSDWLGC
Experimental: as §1

hMMP-7 [4] = target: T1, hMMP-7; experiment: SPR; 50 nM protein, PBS; conditions: label: 3' biotin; hairpin
Experimental: as §1

B1: F3 (ssRNA)
RNA: GGUUACCAGCCUUCACUGCCCUGCCCUCACCCGUUAGCCUGAGCGCCCCGCACCACGGUCGGUCACAC
modifications: 2'-F pyrimidines, 2'-OH purines
**Q.** Does B1 bind (hMMP-7 [1])?
**A.** no binding

**Q.** Does B1 bind (pro-hMMP-7)?
**A.** no binding

**Q.** And the Kd (hMMP-9 (gelatinase B) [2])?
**A.** 8.1 nM

**Q.** Does UGCCAAACGCGUCCCCUUUGCCCGGCCUCCGCCGCA (XNA, 2'-F pyrimidines, 2'-OMe purines) [control scrambled sequence] bind (hMMP-9 (gelatinase B) [3])?
**A.** no binding

**Q.** Does UGCCCUGCCCUCACCCGUUAGCCUGAGCGCCCCGCA (XNA, 2'-F pyrimidines, 2'-OMe purines) [F3Bomf] bind (hMMP-2 (gelatinase A))?
**A.** no binding

**Q.** Does UGCCCUGCCCUCACCCGUUAGCCUGAGCGCCCCGCA (XNA, 2'-F pyrimidines, 2'-OMe purines) [F3Bomf] bind (hMMP-7 [4])?
**A.** no binding
